Literature values as cited in patent publication US5679705A, “Triterpene derivatives with immunosuppressant activity” (Merck & Co., Inc., priority 1996, dated 1997).

Biological target: T1, Kv 1.3 channels (CHO cells transfected with Kv 1.3 channels) (Homo sapiens, UniProt P22001)
T1 construct: expressed in transfected cells; host or cells: CHO cells
Conditions: stated in the method for the peptide used to establish the efflux window; read-out: IC50 (blocker of Kv 1.3 channels)

T1 sequence (P22001 whole entry): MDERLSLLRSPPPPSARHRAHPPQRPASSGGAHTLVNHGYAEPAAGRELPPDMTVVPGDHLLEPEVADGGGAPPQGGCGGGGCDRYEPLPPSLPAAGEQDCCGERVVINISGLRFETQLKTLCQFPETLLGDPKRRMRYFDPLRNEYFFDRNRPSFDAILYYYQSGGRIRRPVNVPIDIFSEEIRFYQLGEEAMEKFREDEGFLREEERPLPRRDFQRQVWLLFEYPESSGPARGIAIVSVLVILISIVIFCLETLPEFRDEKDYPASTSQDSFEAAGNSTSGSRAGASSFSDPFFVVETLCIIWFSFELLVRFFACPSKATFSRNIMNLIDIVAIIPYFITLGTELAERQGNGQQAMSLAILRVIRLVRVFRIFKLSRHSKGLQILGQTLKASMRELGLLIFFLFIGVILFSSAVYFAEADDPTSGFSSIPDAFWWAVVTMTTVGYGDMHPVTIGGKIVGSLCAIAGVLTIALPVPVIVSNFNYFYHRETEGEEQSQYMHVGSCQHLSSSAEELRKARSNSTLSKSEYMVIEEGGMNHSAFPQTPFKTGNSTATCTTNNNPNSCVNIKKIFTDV

In the case of “margatoxin (TIINVKCTSPKQCLPPCKAQFGQSAGAKCMNGKCKCYPH; UniProt P40755 1-39, looked up)”, the IC50 is listed as 0.1 nM.
